Measured values from US20040180051A1 (published 2004).

B1: humanized L chain version “b” combined with a chimeric H chain (antibody, V domains shown)
VH: EVQLQQSGTNLVRPGALVKLSCKGSGFNIKDYYMHWVKQRPEQGLEWIGGNDPANGHSMYDPKFQGKASITADTSSNTAYLQLSSLTSEDTAVYFCARDSGYAMDYWGQGTSVTVSS
VL: DIQMTQSPSSLSASVGDRVTITCKASQDIKSFLSWYQQKPGKAPKLLIYYATSLADGVPSRFSGSGSGTDYTLTISSLQPEDFATYYCLQHGESPYTFGGGTKVEIK
notes: expressed in COS-7; also called ch-b
B2: H chain humanized version b/L chain humanized version b antibody (antibody, V domains shown)
VH: QVQLLESGAVLARPGTSVKISCKASGFNIKDYYMHWVKQRPGQGLEWIGGNDPANGHSMYDPKFQGRVTITADTSTNTAYMELSSLRSEDTAIYYCARDSGYAMDYWGQGTLVTVSS
VL: DIQMTQSPSSLSASVGDRVTITCKASQDIKSFLSWYQQKPGKAPKLLIYYATSLADGVPSRFSGSGSGTDYTLTISSLQPEDFATYYCLQHGESPYTFGGGTKVEIK
notes: also called b-b
B3: humanized H chain version “b3” combined with the humanized L chain version “b” (antibody, V domains shown)
VH: QVQLLESGAVLARPGTSVKISCKASGFNIKDYYMHWVRQAPGQGLEWIGGNDPANGHSMYDPKFQGRVTITADTSTNTAYMELSSLRSEDTAIYYCARDSGYAMDYWGQGTLVTVSS
VL: DIQMTQSPSSLSASVGDRVTITCKASQDIKSFLSWYQQKPGKAPKLLIYYATSLADGVPSRFSGSGSGTDYTLTISSLQPEDFATYYCLQHGESPYTFGGGTKVEIK
notes: expressed in COS-7; also called b3-b
B4: humanized L chain version “b1” combined with a chimeric H chain (antibody, V domains shown)
VH: EVQLQQSGTNLVRPGALVKLSCKGSGFNIKDYYMHWVKQRPEQGLEWIGGNDPANGHSMYDPKFQGKASITADTSSNTAYLQLSSLTSEDTAVYFCARDSGYAMDYWGQGTSVTVSS
VL: DIQMTQSPSSLSASVGDRVTITCKASQDIKSFLSWFQQKPGKSPKTLIYYATSLADGVPSRFSGSGSGTDYTLTISSLQPEDFATYYCLQHGESPYTFGGGTKVEIK
notes: expressed in COS-7; also called ch-b1
B5: humanized L chain version “a” combined with a chimeric H chain (antibody, V domains shown)
VH: EVQLQQSGTNLVRPGALVKLSCKGSGFNIKDYYMHWVKQRPEQGLEWIGGNDPANGHSMYDPKFQGKASITADTSSNTAYLQLSSLTSEDTAVYFCARDSGYAMDYWGQGTSVTVSS
VL: DIQMTQSPSSLSASVGDRVTITCKASQDIKSFLSWYQQKPGKAPKLLIYYATSLADGVPSRFSGSGSGTDFTLTISSLQPEDFATYYCLQHGESPYTFGGGTKVEIK
notes: expressed in COS-7
B6: humanized H chain version “b” combined with the humanized L chain version “b2” (antibody, V domains shown)
VH: QVQLLESGAVLARPGTSVKISCKASGFNIKDYYMHWVKQRPGQGLEWIGGNDPANGHSMYDPKFQGRVTITADTSTNTAYMELSSLRSEDTAIYYCARDSGYAMDYWGQGTLVTVSS
VL: DIQMTQSPSSLSASVGDRVTITCKASQDIKSFLSWYQQKPEKAPKSLIYYATSLADGVPSRFSGSGSGTDYTLTISSLQPEDFATYYCLQHGESPYTFGGGTKVEIK
notes: expressed in COS-7; also called b-b2
B7: humanized L chain version “b2” combined with a chimeric H chain (antibody, V domains shown)
VH: EVQLQQSGTNLVRPGALVKLSCKGSGFNIKDYYMHWVKQRPEQGLEWIGGNDPANGHSMYDPKFQGKASITADTSSNTAYLQLSSLTSEDTAVYFCARDSGYAMDYWGQGTSVTVSS
VL: DIQMTQSPSSLSASVGDRVTITCKASQDIKSFLSWYQQKPEKAPKSLIYYATSLADGVPSRFSGSGSGTDYTLTISSLQPEDFATYYCLQHGESPYTFGGGTKVEIK
notes: expressed in COS-7; also called ch-b2
B8: humanized H chain version “b” combined with the humanized L chain version “c” (antibody, V domains shown)
VH: QVQLLESGAVLARPGTSVKISCKASGFNIKDYYMHWVKQRPGQGLEWIGGNDPANGHSMYDPKFQGRVTITADTSTNTAYMELSSLRSEDTAIYYCARDSGYAMDYWGQGTLVTVSS
VL: DIQMTQSPSSLSASVGDRVTITCKASQDIKSFLSWYQQKPGKAPKLLIYYATSLADGVPSRFSGSGSGTDYTLTISSLQPEDIATYYCLQHGESPYTFGGGTKVEIK
notes: The construction of its expression plasmid is not described
B9: H chain humanized version i/L chain humanized version b antibody (antibody, V domains shown)
VH: QVQLLESGAVLARPGTSVKISCKASGFNIKDYYMHWVKQRPGQGLEWIGGNDPANGHSMYDPKFQGRVTITADTSTSTVFMELSSLRSEDTAVYYCARDSGYAMDYWGQGTLVTVSS
VL: DIQMTQSPSSLSASVGDRVTITCKASQDIKSFLSWYQQKPGKAPKLLIYYATSLADGVPSRFSGSGSGTDYTLTISSLQPEDFATYYCLQHGESPYTFGGGTKVEIK
B10: humanized H chain version “j” combined with the humanized L chain version “b” (antibody, V domains shown)
VH: QVQLLESGAVLARPGTSVKISCKASGFNIKDYYMHWVKQRPGQGLEWIGGNDPANGHSMYDPKFQGRVTFTADTSANTAYMELRSLRSADTAVYYCARDSGYAMDYWGQGTLVTVSS
VL: DIQMTQSPSSLSASVGDRVTITCKASQDIKSFLSWYQQKPGKAPKLLIYYATSLADGVPSRFSGSGSGTDYTLTISSLQPEDFATYYCLQHGESPYTFGGGTKVEIK
notes: expressed in COS-7; also called j-b
B11: humanized H chain version “d3” combined with the humanized L chain version “b” (antibody, V domains shown)
VH: QVQLLESGAVLARPGTSVKISCKASGFNIKDYYMHWVRQAPGQGLEWIGGNDPANGHSMYDPKFQGRVTITADESTSTAYMELSSLRSEDSAVYFCARDSGYAMDYWGQGTLVTVSS
VL: DIQMTQSPSSLSASVGDRVTITCKASQDIKSFLSWYQQKPGKAPKLLIYYATSLADGVPSRFSGSGSGTDYTLTISSLQPEDFATYYCLQHGESPYTFGGGTKVEIK
notes: expressed in COS-7; also called d3-b
B12: H chain humanized version i/L chain humanized version b2 antibody (antibody, V domains shown)
VH: QVQLLESGAVLARPGTSVKISCKASGFNIKDYYMHWVKQRPGQGLEWIGGNDPANGHSMYDPKFQGRVTITADTSTSTVFMELSSLRSEDTAVYYCARDSGYAMDYWGQGTLVTVSS
VL: DIQMTQSPSSLSASVGDRVTITCKASQDIKSFLSWYQQKPEKAPKSLIYYATSLADGVPSRFSGSGSGTDYTLTISSLQPEDFATYYCLQHGESPYTFGGGTKVEIK
notes: also called i-b2
B13: humanized H chain version “i” combined with the humanized L chain version “b1” (antibody, V domains shown)
VH: QVQLLESGAVLARPGTSVKISCKASGFNIKDYYMHWVKQRPGQGLEWIGGNDPANGHSMYDPKFQGRVTITADTSTSTVFMELSSLRSEDTAVYYCARDSGYAMDYWGQGTLVTVSS
VL: DIQMTQSPSSLSASVGDRVTITCKASQDIKSFLSWFQQKPGKSPKTLIYYATSLADGVPSRFSGSGSGTDYTLTISSLQPEDFATYYCLQHGESPYTFGGGTKVEIK
notes: expressed in COS-7; also called i-b1
B14: humanized L chain version “c” combined with a chimeric H chain (antibody, V domains shown)
VH: EVQLQQSGTNLVRPGALVKLSCKGSGFNIKDYYMHWVKQRPEQGLEWIGGNDPANGHSMYDPKFQGKASITADTSSNTAYLQLSSLTSEDTAVYFCARDSGYAMDYWGQGTSVTVSS
VL: DIQMTQSPSSLSASVGDRVTITCKASQDIKSFLSWYQQKPGKAPKLLIYYATSLADGVPSRFSGSGSGTDYTLTISSLQPEDIATYYCLQHGESPYTFGGGTKVEIK
notes: expressed in COS-7
B15: humanized H chain version “g” combined with the humanized L chain version “b” (antibody, V domains shown)
VH: QVQLLESGAVLARPGTSVKISCKASGFNIKDYYMHWVKQRPGQGLEWIGGNDPANGHSMYDPKFQGKATLTADESSSTAYMQLSSLRSEDSAVYSCARDSGYAMDYWGQGTLVTVSS
VL: DIQMTQSPSSLSASVGDRVTITCKASQDIKSFLSWYQQKPGKAPKLLIYYATSLADGVPSRFSGSGSGTDYTLTISSLQPEDFATYYCLQHGESPYTFGGGTKVEIK
notes: expressed in COS-7; also called g-b
B16: humanized H chain version “b” combined with the humanized L chain version “a” (antibody, V domains shown)
VH: QVQLLESGAVLARPGTSVKISCKASGFNIKDYYMHWVKQRPGQGLEWIGGNDPANGHSMYDPKFQGRVTITADTSTNTAYMELSSLRSEDTAIYYCARDSGYAMDYWGQGTLVTVSS
VL: DIQMTQSPSSLSASVGDRVTITCKASQDIKSFLSWYQQKPGKAPKLLIYYATSLADGVPSRFSGSGSGTDFTLTISSLQPEDFATYYCLQHGESPYTFGGGTKVEIK
notes: expressed in COS-7; also called b-a
B17: humanized H chain version “d” combined with the humanized L chain version “b” (antibody, V domains shown)
VH: QVQLLESGAVLARPGTSVKISCKASGFNIKDYYMHWVKQRPGQGLEWIGGNDPANGHSMYDPKFQGRVTITADESTSTAYMELSSLRSEDSAVYFCARDSGYAMDYWGQGTLVTVSS
VL: DIQMTQSPSSLSASVGDRVTITCKASQDIKSFLSWYQQKPGKAPKLLIYYATSLADGVPSRFSGSGSGTDYTLTISSLQPEDFATYYCLQHGESPYTFGGGTKVEIK
notes: expressed in COS-7; also called d-b
B18: humanized H chain version “a” combined with a chimeric L chain (antibody, V domains shown)
VH: QVQLLESGAVLARPGTSVKISCKASGFNIKDYYMHWVKQRPGQGLEWIGGNDPANGHSMYDPKFQGRAKLTAATSASIAYLEFSSLTNEDSAVYYCARDSGYAMDYWGQGTLVTVSS
VL: DIKMTQSPSSMYASLGERVTITCKASQDIKSFLSWYQQKPWKSPKTLIYYATSLADGVPSRFSGSGSGQDYSLTINNLESDDTATYYCLQHGESPYTFGGGTKLEIK
notes: expressed in COS-7
B19: humanized H chain version “b” combined with a chimeric L chain (antibody, V domains shown)
VH: QVQLLESGAVLARPGTSVKISCKASGFNIKDYYMHWVKQRPGQGLEWIGGNDPANGHSMYDPKFQGRVTITADTSTNTAYMELSSLRSEDTAIYYCARDSGYAMDYWGQGTLVTVSS
VL: DIKMTQSPSSMYASLGERVTITCKASQDIKSFLSWYQQKPWKSPKTLIYYATSLADGVPSRFSGSGSGQDYSLTINNLESDDTATYYCLQHGESPYTFGGGTKLEIK
notes: expressed in COS-7; also called b-ch
B20: humanized H chain version “e” combined with a chimeric L chain (antibody, V domains shown)
VH: QVQLLESGAVLARPGTSVKISCKASGFNIKDYYMHWVKQRPGQGLEWIGGNDPANGHSMYDPKFQGRVSITADESTKIAYMELNSLRSEDTAVYFCARDSGYAMDYWGQGTLVTVSS
VL: DIKMTQSPSSMYASLGERVTITCKASQDIKSFLSWYQQKPWKSPKTLIYYATSLADGVPSRFSGSGSGQDYSLTINNLESDDTATYYCLQHGESPYTFGGGTKLEIK
notes: expressed in COS-7; also called e-ch
B21: humanized H chain version “d” combined with a chimeric L chain (antibody, V domains shown)
VH: QVQLLESGAVLARPGTSVKISCKASGFNIKDYYMHWVKQRPGQGLEWIGGNDPANGHSMYDPKFQGRVTITADESTSTAYMELSSLRSEDSAVYFCARDSGYAMDYWGQGTLVTVSS
VL: DIKMTQSPSSMYASLGERVTITCKASQDIKSFLSWYQQKPWKSPKTLIYYATSLADGVPSRFSGSGSGQDYSLTINNLESDDTATYYCLQHGESPYTFGGGTKLEIK
notes: expressed in COS-7; also called d-ch

biological target: T1, human tissue factor (human TF) on human bladder carcinoma cells J82 (human, UniProt P13726 33-295); experiment: cell ELISA on fixed J82 cells;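 also: measures antigen binding in a cell ELISA on J82 cells grown one day in 96-well plates and fixed with 4% paraformaldehyde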
T1 construct: whole, on cells; Target of the cell ELISA; also called the antigen

Binding result, binds:
B1
B2
B3
B4
B5
B6
B7
B8
B9
B10
B11
B12
B13
B14
B15
B16
B17
B18
B19
B20
B21
